# In US20210214461A1:
# Where a chain is given by its changes, count along the chain named.
# B1: scFv 903 (scFv)
# scFv: EIVMTQSPSTLSASVGDRVIITCQASEIIHSWLAWYQQKPGKAPKLLIYLASTLASGVPSRFSGSGSGAEFTLTISSLQPDDFATYYCQNVYLASTNGANFGQGTKLTVLGGGGGSGGGGSGGGGSGGGGSEVQLVESGGGLVQPGGSLRLSCTASGFSLTDYYYMTWVRQAPGKGLEWVGFIDPDDDPYYATWAKGRFTISRDTSKNTVYLQMNSLRAEDTAVYYCAGGDHNSGWGLDIWGQGTLVTVSS
# B2: scFv 961 (scFv)
# scFv: B1 scFv with L142S, V224T, L246T
# B3: scFv105 (scFv)
# scFv: DIVMTQSPSSLSASVGDRVTLTCTASQSVSNDVVWYQQRPGKAPKLLIYSAFNRYTGVPSRFSGRGYGTDFTLTISSLQPEDVAVYYCQQDYNSPRTFGQGTKLEVKRGGGGSGGGGSGGGGSSGGGSQVQLVQSGAEVKKPGASVKVSCTASGYTFTHYGMNWVRQAPGKGLEWMGWINTYTGEPTYADKFKDRFTFSLETSASTVYMELTSLTSDDTAVYYCARERGDAMDYWGQGTLVTVSS
# B4: scFv 791 (scFv)
# scFv: MEIVMTQSPSTLSASLGDRVIITCQSSQSVYGNIWMAWYQQKSGKAPKLLIYQASKLASGVPSRFSGSGSGAEFSLTISSLQPDDFATYYCQGNFNTGDRYAFGQGTKLTVLGGGGGSGGGGSGGGGSGGGGSEVQLVESGGGLVQPGGSLRLSCTASGFTISRSYWICWVRQAPGKGLEWVACIYGDNDITPLYANWAKGRFPVSTDTSKNTVYLQMNSLRAEDTAVYYCARLGYADYAYDLWGQGTLVTVSS
# Assays:
# [1] = biological target: pre-existing anti-scFv903 antibodies in human serum H105 (human); experiment: competition ADA bridging ELISA, 100 mcg/ml competitor
# [2] = biological target: pre-existing anti-scFv903 antibodies in human serum H115 (human); experiment: as above
# [3] = biological target: pre-existing anti-scFv903 antibodies in human serum H116 (human); experiment: as above
# [4] = biological target: pre-existing anti-scFv903 antibodies in human serum H125 (human); experiment: as above
# [5] = biological target: pre-existing anti-scFv903 antibodies in human serum H14 (human); experiment: as above
# [6] = biological target: pre-existing anti-scFv903 antibodies in human serum H20 (human); experiment: as above
# [7] = biological target: pre-existing anti-scFv903 antibodies in human serum H26 (human); experiment: as above
# [8] = biological target: pre-existing anti-scFv903 antibodies in human serum H3 (human); experiment: as above
# [9] = biological target: pre-existing anti-scFv903 antibodies in human serum H40 (human); experiment: as above
# [10] = biological target: pre-existing anti-scFv903 antibodies in human serum H46 (human); experiment: as above
# [11] = biological target: pre-existing anti-scFv903 antibodies in human serum H50 (human); experiment: as above
# [12] = biological target: pre-existing anti-scFv903 antibodies in human serum H54 (human); experiment: as above
# [13] = biological target: pre-existing anti-scFv903 antibodies in human serum H55 (human); experiment: as above
# [14] = biological target: pre-existing anti-scFv903 antibodies in human serum H56 (human); experiment: as above
# [15] = biological target: pre-existing anti-scFv903 antibodies in human serum H59 (human); experiment: as above
# [16] = biological target: pre-existing anti-scFv903 antibodies in human serum H60 (human); experiment: as above
# [17] = biological target: pre-existing anti-scFv903 antibodies in human serum H66 (human); experiment: as above
# [18] = biological target: pre-existing anti-scFv903 antibodies in human serum H69 (human); experiment: as above
# [19] = biological target: pre-existing anti-scFv903 antibodies in human serum H76 (human); experiment: as above
# [20] = biological target: pre-existing anti-scFv903 antibodies in human serum H79 (human); experiment: as above
# [21] = biological target: pre-existing anti-scFv903 antibodies in human serum H86 (human); experiment: as above
# [22] = biological target: pre-existing anti-scFv903 antibodies in human serum H96 (human); experiment: as above
# [23] = biological target: rabbit polyclonal Anti-scFv 903 IgG termed AB903-3 (rabbit); experiment: confirmatory ADA bridging ELISA, pre-incubation with 10, 100 or 1 mcg/ml scFv 903
Binder,% reduction in OD [1] [%],% reduction in OD [2] [%],% reduction in OD [3] [%],% reduction in OD [4] [%],% reduction in OD [8] [%],% reduction in OD [19] [%],% reduction in OD [20] [%],% reduction in OD [21] [%],% reduction in OD [22] [%],% reduction in OD [6] [%],% reduction in OD [7] [%],% reduction in OD [9] [%],% reduction in OD [10] [%],% reduction in OD [11] [%],% reduction in OD [12] [%],% reduction in OD [13] [%],% reduction in OD [14] [%],% reduction in OD [15] [%],% reduction in OD [16] [%],% reduction in OD [18] [%],also measured
B1,-97.2,-94.7,-97.8,-97.9,-79.9,-97,-97.1,-86.2,-80.3,–,–,–,–,–,–,–,–,–,–,–,% change in OD signal [5]: -96.6%; signal change in competition ELISA [6]: -91.9%; % change in OD (signal change) [7]: -92%; % signal change in OD (negative = reduction) [9]: -95.4%; % change in OD signal [10]: -79.8%; signal change in competition ELISA (% change in OD) [11]: -88.7%; signal change in OD (%) [12]: -93.1%; % signal change in OD (negative = reduction) [13]: -89.4%; % change in OD [14]: -24.4%; signal change in competition ELISA (% change in OD) [15]: -97%; signal change in competition ELISA [16]: -95.6%; % change in OD [17]: -97.2%; signal change in competition ELISA (% change in OD) [18]: -92.2%; OD change upon pre-incubation [23]: 60 to 95%
B2,7.4,-31.4,-33.2,2.7,-1.7,-36.4,-74.1,-67.9,-78,-23.5,0.1,-1.7,-40.1,-72.8,-69.4,-14.7,-23.8,-67.3,-1.2,-6.2,–
B3,2.4,-60.4,-43.4,-55.5,-58.8,-65.7,-40.5,–,-29,-18.8,-79.9,3.5,-66.7,-31.1,-61.3,-71.9,-4.8,-93.7,-10.8,-87.6,% reduction in OD [5]: -3.6%; % reduction in OD [17]: -2.6%
B4,-96.9,-94.8,-97.2,-97.4,-85,-48.6,-96.8,-86.7,-78.5,-96.1,-96.8,-94.6,-77.1,-88.5,-91.7,-96,-15.1,-96.4,-94.8,-74.7,% reduction in OD [5]: -96.5%; % reduction in OD [17]: -96.4%
